This assay addresses histone H2B tagged to mCherry (H2B-mCh) (UniProt P06899). Put plainly: FRET or BRET; phasor FLIM-FRET in live HeLa nuclei; donor eGFP-HP1α or eGFP-HP1α_(I165E) (stable, endogenous HP1α knocked down), acceptor H2B-mCh transiently transfected; fraction of pixels exhibiting FRET read as chromatin binding. (In general: In BRET a luciferase serves as donor, and the signal depends on an acceptor being close.)

Consider “eGFP tagged to HP1α dimer mutant I165E (eGFP-HP1α_(I165E)) (from UniProt P45973 1-191) (natural protein)”, for which the fraction of pixels exhibiting FRET (chromatin binding) is 11%.

Consider “eGFP tagged to wild type HP1α (eGFP-HP1α) (from UniProt P45973 1-191) (natural protein)”, for which the fraction of pixels exhibiting FRET (chromatin binding) amounted to 20%.
